Like-named read-outs stand apart in the source and are kept apart here.
Tests used:
[1] = target: pyrene-labeled F-actin (chicken skeletal actin) (chicken) (UniProt P68139); experiment: stopped-flow transient kinetics (pyrene-actin fluorescence); no nucleotide; k'+A from linear fits of kobs; k'-A from mixing 1 µM pyrene-actomyosin complex with excess unlabeled F-actin; 1/K'A calculated as k'-A/k'+A; 20 °C, 20 mM MOPS, 100 mM KCl, 5 mM MgCl2, 1 mM DTT, pH 7.0
[2] = target: F-actin (chicken skeletal actin) (chicken) (UniProt P68139)
[3] = target: pyrene-labeled F-actin (chicken skeletal actin) (chicken) (UniProt P68139); experiment: stopped-flow (pyrene-actin fluorescence amplitude); multiple turnover: 2 µM myosin and 15 µM pyrene-actin mixed with 20 µM ATP; signal normalised to 100% of myosin bound to actin without nucleotide; fraction strongly bound from the change in total amplitude
[4] = target: pyrene-labeled F-actin (chicken skeletal actin) (chicken) (UniProt P68139); experiment: stopped-flow transient kinetics (pyrene-actin fluorescence); with ADP (ADP-myosin); k'+DA from linear dependence of kobs on pyrene-actin concentration; k'-DA from 1 µM pyrA.M pre-incubated with excess ADP mixed with excess unlabeled F-actin; 1/K'DA calculated as k'-DA/k'+DA; 20 °C, 20 mM MOPS, 100 mM KCl, 5 mM MgCl2, 1 mM DTT, pH 7.0
[5] = target: F-actin (chicken skeletal actin) (chicken) (UniProt P68139); experiment: double-mixing stopped-flow, actin-activated Pi release (MDCC-PBP fluorescence); M.D.Pi state; multiple turnover: 2 µM myosin mixed with 200 µM ATP, aged 0.1 s, then mixed with increasing F-actin in excess ADP, 5 µM MDCC-PBP; hyperbolic fit kobs = k'+4[actin]/(1/K'DPA+[actin]); 20 °C, 20 mM MOPS, 100 mM KCl, 5 mM MgCl2, 1 mM DTT, pH 7.0
[6] = target: pyrene-labeled F-actin (chicken skeletal actin) (chicken) (UniProt P68139); experiment: double-mixing stopped-flow (pyrene-actin fluorescence quench); weak-to-strong transition, single turnover: 2 µM myosin mixed with sub-equimolar ATP (1.8 µM), aged 3 s, then mixed with 20 µM pyrene-actin; double exponential fits; 20 °C
[7] = target: pyrene-labeled F-actin (chicken skeletal actin) (chicken) (UniProt P68139); experiment: stopped-flow (pyrene-actin fluorescence amplitude); multiple turnover: 2 µM myosin and 15 µM pyrene-actin mixed with 20 µM ATP; signal normalised to 100% of myosin bound to actin without nucleotide; fraction strongly bound from the change in total amplitude; remark: listed apart in the source
[8] = target: pyrene-labeled F-actin (chicken skeletal actin) (chicken) (UniProt P68139); experiment: double-mixing stopped-flow (pyrene-actin fluorescence quench); weak-to-strong transition, single turnover: 2 µM myosin mixed with sub-equimolar ATP (1.8 µM), aged 3 s, then mixed with 20 µM pyrene-actin; double exponential fits; 20 °C; remark: listed apart in the source

Kd [1] [µM]	koff [1] [s⁻¹]	kon [1] [M⁻¹ s⁻¹]	Kapp of the actin-activated steady-state ATPase (F-actin concentration at kcat/2), NADH-coupled assay [2] [µM]	kcat/Kapp (catalytic efficiency) of the actin-activated steady-state ATPase [2] [M⁻¹ s⁻¹]	percent strongly actin-bound with ATP (experimental duty ratio) [3] [%]	Kd [4] [µM]	koff [4] [s⁻¹]	kon [4] [M⁻¹ s⁻¹]	Kd [5] [µM]	k'+4K'DPA (second order rate constant of M.D.Pi binding to actin) [5] [M⁻¹ s⁻¹]	k'weak-strong (observed rate of the weak-to-strong actin-binding transition) [6] [s⁻¹]	percent strongly actin-bound with ATP (experimental duty ratio) [7] [%]	k'weak-strong (observed rate of the weak-to-strong actin-binding transition) [8] [s⁻¹]	Substance
0.01	0.004	610000	> 100	< 30000	–	–	–	–	–	–	–	–	–	M765^AA-2R, D. discoideum myosin-2 motor domain (amino acids 1-765) with T647A, T648A fused to two alpha-actinin repeats (from UniProt P08799 1-765) (domain or fragment)
0.011	0.005	610000	54	140000	45	0.024	0.005	180000	18	790000	2.3	35	2.6	M765^GGG-2R, D. discoideum myosin-2 motor domain (amino acids 1-765) with the two W-loop threonines replaced by three glycines, fused to two alpha-actinin repeats (from UniProt P08799 1-765) (domain or fragment)
0.0057	0.003	640000	> 100	< 30000	–	0.063	0.006	120000	94	40000	–	–	1	M765^wt-2R, D. discoideum myosin-2 motor domain (amino acids 1-765) fused to an artificial lever of two alpha-actinin repeats (from UniProt P08799 1-765) (domain or fragment)

Reference: paper PMC7795666
